In the supplement of paper PMC5998384:

Columns and labels:
HeLa Kyoto [1] = assay: solubility in G1/S (NP-40 vs SDS abundance) (log2 ratio); higher = more soluble; conditions: cell cycle stage: G1/S
HeLa Kyoto [2] = assay: melting temperature (median over replicates), in situ; higher = more thermally stable
HeLa Kyoto [3] = assay: solubility change mitosis vs G1/S (difference of NP-40 vs SDS log2 ratios) (log2 ratio difference); higher = more soluble in mitosis
HeLa Kyoto [4] = assay: thermal stability score vs G1/S (z-score of summed log2 fold changes over temperatures); higher = more thermally stable than in G1/S
[5] = cell cycle stage: early G1 (4.5 h after nocodazole release)
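Wherever melting temperature (median over replicates), in situ is given: HeLa Kyoto cells synchronized by double thymidine or nocodazole block, proteins quantified by TMT10plex mass spectrometry, three independent biological replicates.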
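Wherever solubility change mitosis vs G1/S (difference of NP-40 vs SDS log2 ratios) is given: synchronized HeLa Kyoto cells (double thymidine block for G1/S, nocodazole release for mitosis), protein amounts in NP-40 versus SDS lysates quantified by mass spectrometry, three biological replicates.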
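Wherever solubility in G1/S (NP-40 vs SDS abundance) is given: HeLa Kyoto cells arrested at G1/S by double thymidine block, proteins quantified by TMT10plex mass spectrometry in mild NP-40 versus SDS extracts, three biological replicates.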
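Wherever thermal stability score vs G1/S (z-score of summed log2 fold changes over temperatures) is given: synchronized HeLa Kyoto cells, proteins quantified by TMT10plex mass spectrometry, three biological replicates, mitosis taken 0.5 h after nocodazole release, G1/S directly after double thymidine block.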

Sequence of ADCK3 (chain, as listed by the source): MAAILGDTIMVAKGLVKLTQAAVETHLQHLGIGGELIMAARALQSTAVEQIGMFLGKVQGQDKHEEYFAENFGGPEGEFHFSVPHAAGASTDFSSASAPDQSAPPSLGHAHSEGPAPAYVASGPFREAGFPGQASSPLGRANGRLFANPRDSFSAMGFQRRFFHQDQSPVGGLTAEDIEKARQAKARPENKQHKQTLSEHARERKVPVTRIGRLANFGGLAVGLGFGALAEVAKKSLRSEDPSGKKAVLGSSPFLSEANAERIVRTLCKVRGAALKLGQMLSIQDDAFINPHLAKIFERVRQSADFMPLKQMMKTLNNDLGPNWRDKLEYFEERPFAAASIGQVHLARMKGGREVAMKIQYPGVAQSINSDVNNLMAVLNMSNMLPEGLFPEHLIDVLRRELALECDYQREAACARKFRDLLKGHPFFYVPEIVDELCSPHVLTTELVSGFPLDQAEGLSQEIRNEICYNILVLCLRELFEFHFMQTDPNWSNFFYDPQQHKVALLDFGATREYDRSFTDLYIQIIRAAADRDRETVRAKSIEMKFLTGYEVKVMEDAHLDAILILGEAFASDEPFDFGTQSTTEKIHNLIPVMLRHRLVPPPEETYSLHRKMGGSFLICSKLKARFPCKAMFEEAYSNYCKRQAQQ
Sequence of CCBL2 (chain, as listed by the source): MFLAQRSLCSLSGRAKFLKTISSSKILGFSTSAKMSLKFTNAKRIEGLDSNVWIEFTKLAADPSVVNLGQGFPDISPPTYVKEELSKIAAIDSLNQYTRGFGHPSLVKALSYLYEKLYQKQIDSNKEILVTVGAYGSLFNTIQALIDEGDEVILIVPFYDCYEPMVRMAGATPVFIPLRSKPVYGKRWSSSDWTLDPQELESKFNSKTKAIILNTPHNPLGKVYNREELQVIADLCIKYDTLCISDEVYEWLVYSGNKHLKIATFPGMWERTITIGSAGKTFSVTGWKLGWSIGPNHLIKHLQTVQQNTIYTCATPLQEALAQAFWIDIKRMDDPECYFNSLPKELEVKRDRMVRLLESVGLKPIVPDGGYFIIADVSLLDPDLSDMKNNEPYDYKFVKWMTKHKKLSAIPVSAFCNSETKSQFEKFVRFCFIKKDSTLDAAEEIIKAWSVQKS
Sequence of APTX (chain, as listed by the source): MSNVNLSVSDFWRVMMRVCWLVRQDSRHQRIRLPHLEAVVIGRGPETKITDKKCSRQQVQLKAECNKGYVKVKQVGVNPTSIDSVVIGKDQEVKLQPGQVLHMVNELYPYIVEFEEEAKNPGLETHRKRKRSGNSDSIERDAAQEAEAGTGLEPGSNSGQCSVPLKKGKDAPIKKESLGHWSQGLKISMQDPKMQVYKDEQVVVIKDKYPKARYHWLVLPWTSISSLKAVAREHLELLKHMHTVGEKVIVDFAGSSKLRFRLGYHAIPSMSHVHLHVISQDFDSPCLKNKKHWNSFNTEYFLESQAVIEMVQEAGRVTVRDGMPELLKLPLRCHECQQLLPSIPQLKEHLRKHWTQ
Sequence of CBX1 (chain, as listed by the source): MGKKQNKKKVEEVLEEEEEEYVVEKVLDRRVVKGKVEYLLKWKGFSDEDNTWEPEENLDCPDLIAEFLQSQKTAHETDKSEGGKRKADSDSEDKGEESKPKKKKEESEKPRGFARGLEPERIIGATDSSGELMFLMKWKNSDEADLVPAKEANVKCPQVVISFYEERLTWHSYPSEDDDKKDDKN
Sequence of CBX3 (chain, as listed by the source): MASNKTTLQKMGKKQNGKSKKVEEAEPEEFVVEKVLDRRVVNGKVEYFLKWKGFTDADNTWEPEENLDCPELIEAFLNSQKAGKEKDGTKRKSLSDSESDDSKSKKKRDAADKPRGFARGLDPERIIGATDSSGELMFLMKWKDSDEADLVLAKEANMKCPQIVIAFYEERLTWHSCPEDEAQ
Sequence of ARHGAP4 (chain, as listed by the source): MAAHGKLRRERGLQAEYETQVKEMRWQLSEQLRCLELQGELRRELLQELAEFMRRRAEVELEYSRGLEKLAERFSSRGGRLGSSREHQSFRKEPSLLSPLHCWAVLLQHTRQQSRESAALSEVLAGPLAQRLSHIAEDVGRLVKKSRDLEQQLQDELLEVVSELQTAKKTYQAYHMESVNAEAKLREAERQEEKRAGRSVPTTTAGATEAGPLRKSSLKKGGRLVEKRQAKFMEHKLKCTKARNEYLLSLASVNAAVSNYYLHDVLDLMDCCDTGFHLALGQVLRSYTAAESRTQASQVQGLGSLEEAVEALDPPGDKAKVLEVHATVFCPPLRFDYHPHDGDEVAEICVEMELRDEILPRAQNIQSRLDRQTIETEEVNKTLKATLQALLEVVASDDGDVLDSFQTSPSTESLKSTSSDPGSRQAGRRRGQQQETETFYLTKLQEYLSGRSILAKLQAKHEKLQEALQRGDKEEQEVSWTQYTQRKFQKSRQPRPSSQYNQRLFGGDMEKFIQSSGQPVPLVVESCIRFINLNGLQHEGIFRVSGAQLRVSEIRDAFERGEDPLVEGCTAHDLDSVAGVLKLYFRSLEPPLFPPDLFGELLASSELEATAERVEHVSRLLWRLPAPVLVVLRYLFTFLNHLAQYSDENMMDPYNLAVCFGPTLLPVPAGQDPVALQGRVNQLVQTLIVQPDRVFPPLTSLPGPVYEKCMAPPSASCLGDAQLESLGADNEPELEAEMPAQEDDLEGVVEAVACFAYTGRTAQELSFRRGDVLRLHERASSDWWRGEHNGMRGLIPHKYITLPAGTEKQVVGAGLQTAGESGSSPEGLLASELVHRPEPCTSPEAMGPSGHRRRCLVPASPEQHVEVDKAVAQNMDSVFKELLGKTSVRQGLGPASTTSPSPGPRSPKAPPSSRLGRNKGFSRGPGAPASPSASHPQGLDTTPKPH
Sequence of ABCF1 (chain, as listed by the source): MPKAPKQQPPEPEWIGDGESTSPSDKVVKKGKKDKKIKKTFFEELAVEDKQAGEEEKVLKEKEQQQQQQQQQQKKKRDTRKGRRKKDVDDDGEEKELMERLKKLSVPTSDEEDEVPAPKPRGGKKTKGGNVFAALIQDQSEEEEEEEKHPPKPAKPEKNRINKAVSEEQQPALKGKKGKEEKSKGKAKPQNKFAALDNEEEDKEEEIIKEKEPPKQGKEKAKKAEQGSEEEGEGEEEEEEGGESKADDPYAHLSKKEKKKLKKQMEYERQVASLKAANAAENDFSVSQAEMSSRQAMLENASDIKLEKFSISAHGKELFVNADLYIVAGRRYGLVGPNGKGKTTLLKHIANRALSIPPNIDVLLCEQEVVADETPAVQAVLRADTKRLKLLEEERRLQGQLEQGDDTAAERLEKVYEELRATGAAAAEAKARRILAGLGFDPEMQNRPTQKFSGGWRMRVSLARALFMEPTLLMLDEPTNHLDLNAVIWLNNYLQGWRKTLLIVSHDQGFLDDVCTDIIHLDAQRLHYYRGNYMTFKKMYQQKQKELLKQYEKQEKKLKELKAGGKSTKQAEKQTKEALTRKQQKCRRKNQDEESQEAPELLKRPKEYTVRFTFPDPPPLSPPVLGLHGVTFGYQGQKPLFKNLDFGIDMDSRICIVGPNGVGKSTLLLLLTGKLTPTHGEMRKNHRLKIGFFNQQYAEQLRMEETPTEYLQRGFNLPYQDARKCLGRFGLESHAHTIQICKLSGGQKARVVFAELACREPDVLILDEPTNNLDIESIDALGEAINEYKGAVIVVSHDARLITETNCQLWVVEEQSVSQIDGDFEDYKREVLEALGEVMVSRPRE
Sequence of ANTXR1 (chain, as listed by the source): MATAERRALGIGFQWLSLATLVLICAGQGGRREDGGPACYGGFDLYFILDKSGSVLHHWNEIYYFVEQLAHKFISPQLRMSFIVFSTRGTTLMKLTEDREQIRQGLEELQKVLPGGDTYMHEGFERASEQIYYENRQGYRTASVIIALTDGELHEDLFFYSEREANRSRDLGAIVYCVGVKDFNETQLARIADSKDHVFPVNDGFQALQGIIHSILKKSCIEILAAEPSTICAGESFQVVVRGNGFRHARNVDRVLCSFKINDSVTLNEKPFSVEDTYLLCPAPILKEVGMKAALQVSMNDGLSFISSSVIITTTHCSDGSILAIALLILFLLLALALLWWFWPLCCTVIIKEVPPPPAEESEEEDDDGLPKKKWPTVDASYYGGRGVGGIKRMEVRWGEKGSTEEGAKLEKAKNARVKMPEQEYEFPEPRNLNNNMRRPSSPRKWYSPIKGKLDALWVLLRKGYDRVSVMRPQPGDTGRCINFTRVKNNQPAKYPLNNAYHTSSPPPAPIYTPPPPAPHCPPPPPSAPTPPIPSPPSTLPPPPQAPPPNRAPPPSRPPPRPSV
Sequence of AKAP8 (chain, as listed by the source): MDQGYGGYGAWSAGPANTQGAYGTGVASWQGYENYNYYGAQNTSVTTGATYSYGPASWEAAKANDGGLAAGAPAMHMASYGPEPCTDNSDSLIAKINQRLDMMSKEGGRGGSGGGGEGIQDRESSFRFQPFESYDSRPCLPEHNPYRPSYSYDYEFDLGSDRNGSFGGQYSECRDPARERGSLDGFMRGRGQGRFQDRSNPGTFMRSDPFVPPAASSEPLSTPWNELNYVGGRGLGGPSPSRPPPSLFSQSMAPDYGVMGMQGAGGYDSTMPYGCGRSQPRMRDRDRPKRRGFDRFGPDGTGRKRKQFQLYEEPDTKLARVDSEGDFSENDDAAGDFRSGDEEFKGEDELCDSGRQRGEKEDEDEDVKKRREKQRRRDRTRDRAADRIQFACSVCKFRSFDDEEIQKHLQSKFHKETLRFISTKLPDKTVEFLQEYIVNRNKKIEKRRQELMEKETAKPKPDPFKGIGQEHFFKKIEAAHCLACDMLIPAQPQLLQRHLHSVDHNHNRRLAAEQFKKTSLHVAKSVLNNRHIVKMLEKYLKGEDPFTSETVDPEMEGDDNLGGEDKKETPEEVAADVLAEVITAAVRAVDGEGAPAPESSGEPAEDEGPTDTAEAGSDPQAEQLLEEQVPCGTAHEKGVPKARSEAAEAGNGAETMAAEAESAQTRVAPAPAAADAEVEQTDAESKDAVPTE

| Substance | solubility in G1/S (log2) (HeLa Kyoto [1]) | melting temperature (HeLa Kyoto [2]; cell cycle stage: G1/S) [°C] | melting temperature (HeLa Kyoto [2]; cell cycle stage: mitosis) [°C] | solubility change mitosis (log2) (HeLa Kyoto [3]) | thermal stability score (HeLa Kyoto [4]; [5]) | thermal stability score (HeLa Kyoto [4]; cell cycle stage: mitosis) |
| --- | --- | --- | --- | --- | --- | --- |
| ABCD1 | -0.353 | 49.9 | 49.7 | -0.0995 | 0.954 | 0.963 |
| ABCF1 | -0.133 | 52.7 | 52.3 | 0.0453 | -2.34 | -2.94 |
| ADCK3 | 0.231 | 51.1 | 50 | -0.0659 | 0.477 | -0.51 |
| AHNAK2 | 0.073 | 53 | 53.5 | -0.0597 | 0.749 | 3.16 |
| AKAP8 | -0.14 | 49 | 49.8 | 0.113 | 1.87 | 2.22 |
| ANKRD17 | -0.13 | 49.8 | 49.9 | 0.0244 | -0.291 | 0.712 |
| ANTXR1 | 0.0506 | 55 | 55 | 0.0236 | -1.21 | -3.82 |
| APOB | -0.404 | 57.6 | 55.5 | 0.0239 | -3.15 | -0.312 |
| APTX | -0.219 | 48.5 | 50.7 | 0.0501 | 0.58 | 1.59 |
| ARFGEF1 | -0.319 | 50.8 | 50.1 | -0.109 | 0.51 | 0.0301 |
| ARHGAP4 | 0.0702 | 52.5 | 50.3 | -0.000167 | 0.224 | 0.251 |
| ARHGAP21 | -0.453 | 47.6 | 50.2 | 0.156 | 0.0615 | 0.748 |
| ARID1B | -0.143 | 48.8 | 50.2 | 0.0332 | 0.573 | 1.11 |
| ASCC1 | -0.115 | 50.3 | 50.7 | 0.0348 | 1.88 | 1.1 |
| ATM | -0.339 | 51.7 | 51.3 | -0.141 | 0.333 | 0.0333 |
| ATRX | -1.33 | 49.2 | 51.4 | 0.492 | -0.452 | 0.516 |
| CBX1 | -0.629 | 51.2 | 52.8 | 0.55 | 2.04 | 1.13 |
| CBX3 | -0.141 | 49.9 | 50.9 | 0.672 | 0.789 | 1.67 |
| CCBL2 | 0.16 | 57.2 | 57.5 | -0.21 | -0.947 | -1.75 |
